{"source": "paper PMC5037179", "about": "(Frontiers in Molecular Biosciences, 2016)", "molecules": {"B1": {"name": "apo-Fdx (natural protein, E. coli, UniProt P0A9R4 1-111, looked up)", "chain": "MPKIVILPHQDLCPDGAVLEANSGETILDAALRNGIEIEHACEKSCACTTCHCIVREGFDSLPESSEQEDDMLDKAWGLEPESRLSCQARVTDEDLVVEIPRYTINHAREH", "notes": "Fdx, ferredoxin of the isc operon, E. coli; subcloned by PCR from bacterial genomic DNA; also called ferredoxin; source: E. coli BL21(DE3), purified (Ni-NTA, TEV cleavage, gel filtration)"}, "B2": {"name": "HscB (natural protein, E. coli)", "chain": "MDYFTLFGLPARYQLDTQALSLRFQDLQRQYHPDKFASGSQAEQLAAVQQSATINQAWQTLRHPLMRAEYLLSLHGFDLASEQHTVRDTAFLMEQLELREELDEIEQAKDEARLESFIKRVKKMFDTRHQLMVEQLDNETWDAAADTVRKLRFLDKLRSSAEQLEEKLLDF", "notes": "HscB, co-chaperone of the isc operon, E. coli; subcloned by PCR from bacterial genomic DNA; Uniformly 15N-labelled (HSQC) or 2H,15N-labelled (cross saturation) for NMR; unlabelled in MST, cross-linking and when added to 15N IscU; also called co-chaperone HscB; source: E. coli BL21(DE3), purified (Ni-NTA, TEV cleavage, gel filtration)"}}, "key": {"[1]": {"target": "IscU (Escherichia coli) (UniProt P0ACD4)", "sequence (P0ACD4 whole entry)": "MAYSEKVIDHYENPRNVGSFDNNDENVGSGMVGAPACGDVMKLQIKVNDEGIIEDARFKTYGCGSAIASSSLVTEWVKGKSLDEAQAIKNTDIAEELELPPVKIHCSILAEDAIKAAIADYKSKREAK", "details": "cited from earlier work"}, "[2]": {"target": "T1, IscS (E. coli, UniProt P0A6B7 1-404)", "T1 construct": "IscS, pyridoxal phosphate dependent cysteine desulfurase of the isc operon, E. coli; subcloned by PCR from bacterial genomic DNA; For MST only, IscS was labelled with the amine-reactive dye NT-647 (about 0.67 dye molecules per IscS, RED-NHS kit); unlabelled in all other experiments; also called desulfurase IscS; wild-type IscS; source: E. coli BL21(DE3), purified (Ni-NTA, TEV cleavage, gel …)", "T1 sequence (P0A6B7 whole entry)": "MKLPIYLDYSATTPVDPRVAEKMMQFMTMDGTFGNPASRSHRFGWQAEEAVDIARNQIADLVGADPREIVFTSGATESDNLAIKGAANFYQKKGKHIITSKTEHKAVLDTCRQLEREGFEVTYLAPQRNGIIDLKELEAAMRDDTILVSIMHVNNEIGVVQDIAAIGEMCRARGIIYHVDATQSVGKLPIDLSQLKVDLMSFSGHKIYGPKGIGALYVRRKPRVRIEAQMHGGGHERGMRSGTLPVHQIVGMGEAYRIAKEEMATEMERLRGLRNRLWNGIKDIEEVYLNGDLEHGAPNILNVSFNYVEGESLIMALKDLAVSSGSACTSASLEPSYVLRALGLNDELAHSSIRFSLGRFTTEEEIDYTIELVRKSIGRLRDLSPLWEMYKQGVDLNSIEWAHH", "test": "NMR titration; competition: 15N HSQC of 100 uM 15N-labelled HscB in complex with unlabelled IscS (1:1), titrated with CyaY or apo-Fdx up to 1:1:3", "details": "both partners purified"}, "[3]": {"target": "T1, IscS", "test": "MST; IscS labelled with NT-647 at 52 nM, HscB serially diluted 1:1 from 600 uM (12 solutions); 20 mM Tris-HCl pH 8, 150 mM NaCl, 0.5 mM TCEP, 0.05% Tween-20; 25 C; 40-60% LED power, 17% IR-laser power; 1:1 stoichiometry assumed", "details": "both partners purified"}}, "data": [{"molecule": "IscS (from UniProt P0A6B7)", "values": [{"measurement": "Kd", "setting": "[1]", "value": 10, "unit": "µM"}]}, {"molecule": "B1", "values": [{"measurement": "binding result", "setting": "[2]", "value": "binds"}]}, {"molecule": "B2", "values": [{"measurement": "Kd", "setting": "[3]", "value": "10 to 30", "unit": "µM"}]}]}
